Several values for one entry are separate records, joined by “and”; a condition that tells them apart may be missing. Equal values may be shown once.
Biological target: the molecule itself
Experiment: AUC; sedimentation velocity (SV-AUC); MetA at 10, 20 and 30 µM in 20 mM Tris-Cl pH 7.5, 150 mM NaCl; 40,000 rpm; absorbance at 280 nm; SEDFIT continuous c(s) distribution; monomer, dimer and tetramer peaks, populations unchanged at the three concentrations

B1: homoserine acetyl transferase MetA (Rv3341) of Mycobacterium tuberculosis, recombinant histidine-tagged (enzyme)
chain: MTISDVPTQTLPAEGEIGLIDVGSLQLESGAVIDDVCIAVQRWGKLSPARDNVVVVLHALTGDSHITGPAGPGHPTPGWWDGVAGPGAPIDTTRWCAVATNVLGGCRGSTGPSSLARDGKPWGSRFPLISIRDQVQADVAALAALGITEVAAVVGGSMGGARALEWVVGYPDRVRAGLLLAVGARATADQIGTQTTQIAAIKADPDWQSGDYHETGRAPDAGLRLARRFAHLTYRGEIELDTRFANHNQGNEDPTAGGRYAVQSYLEHQGDKLLSRFDAGSYVILTEALNSHDVGRGRGGVSAALRACPVPVVVGGITSDRLYPLRLQQELADLLPGCAGLRVVESVYGHDGFLVETEAVGELIRQTLGLADREGACRR
notes: also called HSAT; (His)6-Rv3341
B1 was tested, and the “stoichiometry N” value was 2 and 4.

Reference: article doi:10.1101/2020.09.01.277368 (bioRxiv, 2020)
